Results as given in article PMC8518180, “A global screening identifies chromatin-enriched RNA-binding proteins and the transcriptional regulatory activity of QKI5 during monocytic differentiation”.

Target: T1, QKI5 (UniProt Q96PU8 1-341)
T1 sequence: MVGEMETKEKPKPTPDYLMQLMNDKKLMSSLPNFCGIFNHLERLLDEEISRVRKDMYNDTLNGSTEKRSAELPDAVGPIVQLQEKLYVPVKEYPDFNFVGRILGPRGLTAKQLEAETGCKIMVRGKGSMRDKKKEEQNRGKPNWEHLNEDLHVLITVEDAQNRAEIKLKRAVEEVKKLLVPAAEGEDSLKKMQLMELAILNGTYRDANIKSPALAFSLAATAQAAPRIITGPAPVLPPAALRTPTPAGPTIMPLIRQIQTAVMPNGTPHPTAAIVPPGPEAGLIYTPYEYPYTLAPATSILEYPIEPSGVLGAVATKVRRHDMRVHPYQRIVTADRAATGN
Assay: EMSA; 50 fmol biotin-labelled probe; LightShift Chemiluminescent EMSA Kit per manufacturer; 50 fmol biotin-labelled probe, 4 ul QKI5; room temperature 20 min; native 8% PAGE; buffer, salt and pH not stated
Conditions: protein: commercial; chain copies: 2; label: 5'-biotin (cold version unlabelled); blunt

Row | Binder | binding result
1 | wild-type CXCL2 promoter probe (dsDNA) DNA 1: GAAAGGATGGGGGATTGCAACACTGTTAAC DNA 2: GTTAACAGTGTTGCAATCCCCCATCCTTTC | binds
2 | mutant CXCL2 promoter probe (dsDNA) DNA 1: GAAAGGATGGAAAGCCATAACACTGTTAAC DNA 2: GTTAACAGTGTTATGGCTTTCCATCCTTTC | no binding
